Source: the nanobody polyreactivity screen of Harvey et al. (2022)

Test: yeast display, Sf9 membrane polyspecificity reagent, FACS + sequencing; frameworks hold sequencing errors
Summary of the method: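 Nanobodies came from a synthetic yeast display library in Saccharomyces cerevisiae BJ5465, induced with galactose for 36–48 hours and stained for 1 hour at 4 °C with 10% biotinylated, detergent-solubilized Sf9 membrane reagent. Cells were enriched on streptavidin microbeads and then FACS-sorted, with low and high (top ~1%) gates set on anti-HA fluorescence for expression and streptavidin fluorescence for reagent binding. Each polyreactivity label reflects the gate a clone came from. Genes were amplified by colony PCR, sequenced by MiSeq 2 × 250 and filtered by CDR length.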

Row | Sequence | polyreactivity (PSR sort gate)
1 | QVQLQESGGGLVQAGGSLRLSCAASGTLSPLPAMGWYRQAPGKEREFVPGIDTGAITNYADSLKGRFTISRDNAKYTVYLQMNSLKPEDTAVYYCAVFPAAYLYYERYDTYWGQGTQVTVSS | low polyreactivity
2 | QVQLQESGGGLVQAGGSLRLSCAASGYISHADEMGWYRQAPGKEHELVASISNGGSTNYADSVKGRFTISRDNAKNTVYLQMNSLKSEDTAVYYCAAWTGQVDIHYYWGQGTQETVSS | low polyreactivity
3 | QVQLQESGGGLVQAGGSLRLSCAASGYISLAQTIGWYRQAQGKEREFVASIALGSSTYYTDSVKGSFTISRDNAKTTVYLQMNSLKPEDTAVYYCAARVGASYAHDYWGQGTQVTLSS | low polyreactivity
4 | QVQLQESGGGLVQAGGSLRLSCAASGYISQSSVMGWYRQAPGKERDFVASISYGATTYYADSVKGRFTISRDNAKNTVYLQTNSPKPEDTAVYYCAVGVKRGFSHRYWGQGTQVTVSS | high polyreactivity
5 | QVQLQESGGGLVQAGGSLRLSCAASGYISSWYPMGWYRQAPGKEREFVATIAPGATTYYADSVKGRFTISRDYAKNTVYLQMNSLKPEDTAVYYCAAGPLNNDFYSYWGQGTQVTVSS | low polyreactivity
6 | QVQLQESGGGLVQAGGSLRLSCAASGYISTFSSEMGWYRQAPGKERELVASIAPGCTTSYADSVKGRFTISRDNAKNTVYLQMNSLKPEDTAVYYCAVDFTVPASFGYWGQGTQVTVSS | high polyreactivity
7 | QVQLQESGGGLVQAGGSLRLSCAASGYISTWYPMGWYRQAPGKEREFVATIAPGATTYYADSVKGRFTISRDYAKNSVYLQMNSLKPEDTAVYYCAAGPENNDFYSYWGQGTQVTVSS | low polyreactivity
8 | QVQLQESGGGLVQAGGSLRLSCAGSGYIFPRIYMGWYRQAPGKEREFDAGISYDAITNYADSVKGRFTISLDNAKNTVYLQMNSLKPEDTAVYYCAVSYYGTPLFTYWGQGTQVTVSS | high polyreactivity
9 | QVQLQESGGGLVQAGGSLRLSCASSGSISILQSMGWYRQAPGKERELVAGINWGATTYYADSVKGRLTTSRDYAKNTVYLQMNSLKPEDTGVYYCAVPTYYTYPLLYWGQGTQVTVSS | low polyreactivity
10 | QVQLQESGGGLVQAGGSLRLSCAVSGTIFFPLDMGWYRQAPGREREYVAAIAEGTSTYYADSVKGRFTISRDNAKNTVYPQMYSLNPEDTAVYYCAAYRSTPQQFHYWGQGTQVTVSS | high polyreactivity
11 | QVQLQESGGGLVQAGGSLRLSSAASGPISRRSTMGWYRQAPGKERELVTAITRGTNTNYADSVKGRFTISRDNAMNTEYLQMNSLKPEDTAVYYCAAYGVLKPSRGDAVFHRYWGQGTQVTVSS | low polyreactivity
12 | QVQLQESGGGLVQAGGSLRPLCAAGGTIFVSVNMRLYRHAPGEEREFVASITQGATTNYADSLIGRFTISRDNAKNTVYLLMNCQKPEDTEVYYCAVHESGGITFTYWGQGTQVTVSS | high polyreactivity
13 | QVQLQESGGGLVQAGGSLRPSCAASGSISDGVRMGWYRQAPGEEGELVATTVLGATTNYADSVKGRFTISRGNAKNTVYLLMTSLKAEATAVYYCAAPLRYDKGFSYWGQGTQVTVSS | low polyreactivity
14 | QVQLQESGGGLVQAGGSLRPSCAASGSISDRWWMGLYRQAPGKERESVAGINDGASTYYADSVKGRFTISCDNAKNTVYLQMNSLKPEDTAVYYCAVYVFITGCLNYWGQGTQVTVSS | high polyreactivity
15 | QVQLQESGGGLVQAGGSLRPSCAPSGSISDGDPMAWYRQAPGEERELVATTVLGATTNYADSVKGRFTISRGNAENTVYLERYWLKPVETAVYYCAAPLRYDKGFSYWGQGTQVTVSS | low polyreactivity
16 | QVQLQESGGGLVQAGGSLRQSCAASGYIFQPFYMGWYRQAPGKERELVAGISVGGNTYYADSVKGRFTISRDNAKNSVFLQMNSLKPEDTAVYYCAVQFVLQDKYVYWGQGTQVTVSS | low polyreactivity
17 | QVQLQESGGGLVQAGGSPRLSCAASDNIFPDSVMCWSRQAPGKERELVATIGFGATTNYADSVKGRFTISRDNAKNTVYLQMNSLKPEDTAVYYCAADPLNYEYFCYWGQGTQVTVSS | low polyreactivity
18 | QVQLQESGGGLVQAGGSQRLSCAASGTITVLYKMGRFRQAPGKEREFVASINYGTSTYYADSVKGRFTLSRDSAKNTVYLQMNSLKPEDTAVYYCAAAYRWQDVYRYWGQGTQVTVSS | low polyreactivity
19 | QVQLQESGGGLVQAGGSQRLTCAASGYIFYFQYMGWYRPAPGKEREFVAAISDGANTNYADSVKGRFTISRDNAKNTEYLQMNSLKPEDTAVYYCSVYADENYYYIYWGQGTQVTVSS | low polyreactivity
20 | QVQLQESGGGLVQAGGTLRLSCQASGSIFVSVTMGWYRQAPGKERELVASIGRGSTTNHADSVKGRFTISRDNAKNIVYLLMNSLKPEDTAVYYCAALESYGKYHGYWGQGTQVTVSS | low polyreactivity
21 | QVQLQESGGGMVQAGGSLRLSCAASGYISWADNMAWYRQAPGKERELVAGIGYGSTTYYADSVKGRFTISRDNAKNTAYLQMNSLKPEDTSVYYCAVGWYRDTAYKYWGQGTQVTVSS | low polyreactivity

Row | Sequence | polyreactivity (PSR sort gate)
22 | QVQLQESGGGMVQAGGSLRLSRATSGTISATKGMCRYRQAPGKERELVAGINYGGNTNYADNVKGRFTISRDNAKNTVYLQMNSLKPGDTAVYYCAAEPRGVTDLGYWGQGTQVTVSS | low polyreactivity
23 | QVQLQESGGGQVQAGGSLRLSCAASGNNSVTGFMGRYRQAPGKERELVASIGIGGTTYYADSVKGRFSISRDNAKNTVYLQMNSLKPEDTAVYYCAARYLYYAYSYWGQGTQVTVSS | low polyreactivity
24 | QVQLQESGGGQVQAGGSLRLSCAASGTISDSGLMGWYRQAPGKERELVAGISSGGITNYADSVKGRFTISRDNAKNTVYLQMNILKPEDTAVYWGQGTQVTVSI | low polyreactivity
25 | QVQLQESGGGQVQAGGSLRLSCAASGYISTHYFMGWYRQAPGKDREFVAGISNGSITNYADSVKGRFTISRDNARNTVYLQMNSLKPEDTAVYYGAAYDWTYVRFGYWGQGTQVTVSG | high polyreactivity
26 | QVQLQESGGGQVQAGGSLRLSCAPSGYISSWYPKGWYRQAPGKEPEFVATIAPGATNYYADSVKGRFTISRDYAKNTVYQQMNSLKPEDTAVYYCAVVSNGRRERYYYWGQGTQVTVSS | low polyreactivity
27 | QVQLQESGGGQVQAGGSLRLSCEASGTIFLYAFMGWYRQAPGKERELVAAIDVGTTTNYADSVKGRFTISRDNAKNTVYLQMNSLKPEDTAVYYCAANLGYLDDLGYWGQGTQVTVSS | low polyreactivity
28 | QVQLQESGGGQVQAGGSLRPSCAASGSISDRVPMGWYRQAPGEERELVATTVLGATTNYADSVKGRFTISRGNAKNTVYLQMNSLKPEETAVYYCAAPLRYDKGFSYWGEGTQVTVSS | low polyreactivity
29 | QVQLQESGGGVQAGGSLRLSCAASGSISAPILMGWYRQAPGKERELVAGIGGGANTYYADSVKGRFTFSRDNAKYTVYLQMYSLKPEDTAVYYCAAGDYYWTNFGYWGQGTQVTASS | high polyreactivity
30 | QVQLQESGGLVQAGGLRLSCAASGYVSYQEAMGWYRQAPGKEREIVATISFGANTNYADSVKGRFTISRDNAKNTVYLQMNSLKPEDTAVYYCAAESLFDVYYGYWGQGTQVTVSS | low polyreactivity
31 | QVQLQESGGLVQAGGLRLSCEASGSVSYQEGMGWYRQATGKERELVATISFGANTNYADSVKGRFTISRDNAKNTVYLQMNSLKTEDTAVFYCAADSLFDDYYGYWGQGTQVTVSS | low polyreactivity
32 | QVQLQESGGRLVQAGGSLRLSCAASGNIFPTVSMGWYRQAPGKDREFVVTIDPGSNTYYADSAKGRFTISRDNAQNTVYLQMNSPKPEDTAVYYCAVVFADWATYGYWGQGTQVTVSS | high polyreactivity
33 | QVQLQESGGRLVQAGGSLRLSCAATGTIFTERFMGWYRQAPGKERELVAVISPGTSTNYADSVKGRFTISRDNAKNTVYLQMNSLKPEDTAVYYCAADWSTGNTLPYWGQGTQVTVSS | high polyreactivity
34 | QVQLQESGGRLVQSCGTLRLSCAASGTITVLYKIGRFRQAPGKEREFVASINYGTSTYYADSVKGRFTVSRDSAKNTVYLQMNSLKPEDTAVYYCAAAYRWQDVYRYWVQGTQVTVSS | low polyreactivity
35 | QVQLQESGGSLVQAGGSLRLSCSASGNILVLPHGLVSPGAERELVATITGGSITYYADSEKGRFTISRDNAKNTVYLQMNSLKPGDTAVYYCAVINIYHRPHPYWGQGTLVTVSS | high polyreactivity
36 | QVQLQESGGVLMQAGGNLRLSFPASGYISTHYDMDWYRQAPGKERELVARIDDGAITNYADSVKGRFTISRDNAKNTVYLQMNSLKPEDTAVYYCAVYYGDDYYHDYWGQGTQVTVSS | low polyreactivity
37 | QVQLQESGGVQAGGSLRLSCAASGYISRSDVMGWYRQAPGKERELVATINNGTITYYADSVKGRFTISRDNATNTVYLQMNSLKPEDTAVHYCAVVQSDTDSLYYWGQGTQVTVSS | low polyreactivity
38 | QVQLQESGGVQAGGSLRLSSAASSYISRSDVMGWYRQAPGKERELVATINNGTITYYADSVKGRFTISRDNAKNTVYLQMNSLKPEDTAVHYFAVVQSDTDSLYYWGHGTQVTVSS | low polyreactivity
39 | QVQLQESGRGLVQAGGSLRLSCAASGSISILQSMGWYRQAPGKERELVAGINWGATTYYADSVKGRLTTSRDYAKNTVYLQMNSLKPEDTAVYYCAVPTYYTYPLLYWGQGTQVTVSS | low polyreactivity
40 | QVQLQESGRRPGAAGGSPRISCAASGYIFWVAVMGRYRQAPGKDRELVASIGFGCTTYYADSVKCRFTISRDNAKNSVYLQMISLKPEDTAVYYCAAPHYDWGELDYWGQGTQVPVSS | low polyreactivity
41 | QVQLQESGRRPGAAGGSPRMSCAASGNIFWVAVMGRYRQAPGKERELVASIGFGCTTYYADSVKCRFTISRDNAKNTVYLQMISLKPEDTAVYYCAAPHYDWGEIDYWGQGTQVPVSS | low polyreactivity
